From patent US20230134580A1

Experiments:
[1] = molecular target: human TIGIT (T cell immunoreceptor with Ig and ITIM domains), expressed on cells (human) (UniProt Q495A1); assay: flow cytometry (CytoFlex), whole cell binding to cells expressing human TIGIT, MFI of AlexaFlour 488; one representative of three experiments
[2] = molecular target: recombinant cynomolgus TIGIT (cynomolgus monkey); assay: ELISA on recombinant cyno-TIGIT
[3] = molecular target: human TIGIT (T cell immunoreceptor with Ig and ITIM domains), expressed on cells (human) (UniProt Q495A1); assay: cell-based or functional assay
[4] = molecular target: human TIGIT (T cell immunoreceptor with Ig and ITIM domains), expressed on cells (human) (UniProt Q495A1); assay: whole cell binding assays, n=3 (FIG. 10A)
[5] = molecular target: recombinant human TIGIT extracellular domain (ECD) (human) (UniProt Q495A1); assay: ELISA on recombinant human TIGIT ECD
recombinant human TIGIT extracellular domain (ECD) (human), sequence (Q495A1 22-138 limits assumed): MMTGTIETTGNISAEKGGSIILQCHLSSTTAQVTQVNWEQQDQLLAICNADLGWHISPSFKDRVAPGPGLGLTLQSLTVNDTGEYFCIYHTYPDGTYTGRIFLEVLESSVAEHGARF

human TIGIT (T cell immunoreceptor with Ig and ITIM domains), expressed on cells (human), sequence (Q495A1 22-244 limits assumed): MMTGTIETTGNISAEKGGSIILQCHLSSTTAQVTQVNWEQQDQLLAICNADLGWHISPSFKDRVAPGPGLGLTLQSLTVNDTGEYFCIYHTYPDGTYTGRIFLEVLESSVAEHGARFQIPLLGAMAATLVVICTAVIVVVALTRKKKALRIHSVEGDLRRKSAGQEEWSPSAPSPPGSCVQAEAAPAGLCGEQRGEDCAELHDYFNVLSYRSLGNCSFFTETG

- EC50 (read off the curve) [1]: 0.5 nM
- EC50 (read off the curve) [2]: 0.1 µg/mL
- EC50, NFAT luciferase reporter assay (n=3) [3]: 0.72 nM
- EC50 [4]: 0.61 nM
- EC50 (read off the curve) [5]: 0.1 µg/mL
Substance: Reference Ab 2 (same amino acid sequences as Tiragolumab, U.S. 2017/0088613 A1) (antibody)
